Assay results reported in US9029508 (dated 2015).
“And” between values parts separate entries of the source, which are not always exact repeats. Identical values can stand only once. Like-named read-outs stand apart in the source and are kept apart here. Values belong to the binder of their own block, whether it stands above or below them.

What was measured:
NRP1 [1] = target: T1, NRP1 (human, UniProt O14786); experiment: SPR
NRP1 [2] = target: T1, NRP1; experiment: ELISA
CD80 = target: T2, CD80 (human, UniProt P33681); experiment: ELISA
T2 chain: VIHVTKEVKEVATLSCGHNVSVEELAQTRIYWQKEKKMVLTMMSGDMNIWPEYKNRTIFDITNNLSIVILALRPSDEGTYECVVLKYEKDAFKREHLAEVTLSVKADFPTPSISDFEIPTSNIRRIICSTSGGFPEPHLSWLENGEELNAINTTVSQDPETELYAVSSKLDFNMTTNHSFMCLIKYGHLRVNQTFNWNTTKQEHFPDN

HGF [3] = target: T3, HGF (human, UniProt P14210); experiment: ELISA
T3 sequence (P14210 32-728): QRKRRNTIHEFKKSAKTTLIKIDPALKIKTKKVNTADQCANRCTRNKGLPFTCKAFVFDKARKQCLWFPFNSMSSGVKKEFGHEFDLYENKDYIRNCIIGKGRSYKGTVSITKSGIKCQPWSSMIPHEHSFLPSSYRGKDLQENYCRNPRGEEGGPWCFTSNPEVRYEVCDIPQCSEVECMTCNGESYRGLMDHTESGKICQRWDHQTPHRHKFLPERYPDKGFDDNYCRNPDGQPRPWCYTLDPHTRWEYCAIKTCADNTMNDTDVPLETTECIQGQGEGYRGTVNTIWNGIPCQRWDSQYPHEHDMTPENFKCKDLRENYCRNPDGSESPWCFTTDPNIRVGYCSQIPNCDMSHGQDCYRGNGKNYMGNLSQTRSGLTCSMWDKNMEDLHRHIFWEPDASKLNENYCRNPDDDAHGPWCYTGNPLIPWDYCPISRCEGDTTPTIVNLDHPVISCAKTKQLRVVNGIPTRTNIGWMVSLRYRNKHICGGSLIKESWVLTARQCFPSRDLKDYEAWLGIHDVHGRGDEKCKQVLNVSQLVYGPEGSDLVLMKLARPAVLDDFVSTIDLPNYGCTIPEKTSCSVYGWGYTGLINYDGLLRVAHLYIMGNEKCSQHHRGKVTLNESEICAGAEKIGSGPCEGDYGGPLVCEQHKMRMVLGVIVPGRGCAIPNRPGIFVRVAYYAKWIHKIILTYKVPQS

HGF [4] = target: T3, HGF; experiment: SPR
HGF [5] = target: T3, HGF; experiment: competition
HGF [6] = target: T3, HGF; experiment: ELISA; remark: listed apart in the source
CD22 = CD22 (human, UniProt P20273); experiment: ELISA
RON [7] = target: T4, RON (human, UniProt Q04912); experiment: ELISA
RON [8] = target: T4, RON; experiment: SPR
RON [9] = target: T4, RON; experiment: ELISA; remark: listed apart in the source

Kd (NRP1 [1]): 2.67 nM | EC50 (NRP1 [2]): 0.58 nM
B1: AB016 (antibody, V domains shown)
VH: EVQLVESGGGLVQPGGSLRLSCAASGFSFSSEPISWVRQAPGKGLEWVSSITGKNGYTYYADSVKGRFTISADTSKNTAYLQMNSLRAEDTAVYYCARWGKKVYGMDVWGQGTLVTVSS
VL: DIQMTQSPSSLSASVGDRVTITCRASQSISSYLAWYQQKPGKAPKLLIYGASSRASGVPSRFSGSGSGTDFTLTISSLQPEDFATYYCQQYMSVPITFGQGTKVEIKR

EC50 (CD80): 0.77 nM
B4: AB007 (antibody, V domains shown)
VH: QVQLQESGPGLVKPSETLSLTCAVSGGSISGGYGWGWIRQPPGKGLEWIGSFYSSSGNTYYNPSLKSQVTISTDTSKNQFSLKLNSMTAADTAVYYCVRDRLFSVVGMVYNNWFDVWGPGVLVTVSS
VL: ESALTQPPSVSGAPGQKVTISCTGSTSNIGGYDLHWYQQLPGTAPKLLIYDINKRPSGISDRFSGSKSGTAASLAITGLQTEDEADYYCQSYDSSLNAQVFGGGTRLTVLG

EC50 (CD22): 3.44 nM
B6: AB008 (antibody, V domains shown)
VH: QVQLVQSGAEVKKPGSSVKVSCKASGYTFTSYWLHWVRQAPGQGLEWIGYINPRNDYTEYNQNFKDKATITADESTNTAYMELSSLRSEDTAFYFCARRDITTFYWGQGTTVTVSS
VL: DIQLTQSPSSLSASVGDRVTMSCKSSQSVLYSANHKNYLAWYQQKPGKAPKLLIYWASTRESGVPSRFSGSGSGTDFTFTISSLQPEDIATYYCHQYLSSWTFGGGTKLEIKR

EC50 (RON [7]): 0.26 nM and 0.21 nM | Kd (RON [8]): 20.2 nM and 20.1 nM | EC50 (RON [9]): 1.6 nM and 0.7 nM and 1.3 nM
B7: AB005 (antibody, V domains shown)
VH: EVQLVQSGGGLVKPGGSLRLSCAASGFTFSSYAMHWVRQAPGKGLEWVAVISYDGSNKYYADSVKGRFTISRDNSKNTLYLQMNSLRAEDTAVYYCARFSGWPNNYYYYGMDVWGQGTTVTVSS
VL: DVVMTQSPLSLPVTPGEPASISCRSSQSLLHSNGFNYVDWYLQKPGQSPHLLIYFGSYRASGVPDRFSGSGSGTDFTLKISRVEAEDVGVYYCMQALQTPPWTFGQGTKVEIRR

The next lines start with the binder.

B2: DVD050 NRP1 arm (antibody, V domains shown)
VH: EVQLVESGGGLVQPGGSLRLSCAASGFSFSSEPISWVRQAPGKGLEWVSSITGKNGYTYYADSVKGRFTISADTSKNTAYLQMNSLRAEDTAVYYCARWGKKVYGMDVWGQGTLVTVSS
VL: DIQMTQSPSSLSASVGDRVTITCRASQSISSYLAWYQQKPGKAPKLLIYGASSRASGVPSRFSGSGSGTDFTLTISSLQPEDFATYYCQQYMSVPITFGQGTKVEIKR
modifications: DVD-Ig outer
Kd (NRP1 [1]): 1.44 nM | EC50 (NRP1 [2]): 0.46 nM

B3: DVD049 NRP1 arm (antibody, V domains shown)
VH: EVQLVESGGGLVQPGGSLRLSCAASGFSFSSEPISWVRQAPGKGLEWVSSITGKNGYTYYADSVKGRFTISADTSKNTAYLQMNSLRAEDTAVYYCARWGKKVYGMDVWGQGTLVTVSS
VL: DIQMTQSPSSLSASVGDRVTITCRASQSISSYLAWYQQKPGKAPKLLIYGASSRASGVPSRFSGSGSGTDFTLTISSLQPEDFATYYCQQYMSVPITFGQGTKVEIKR
modifications: DVD-Ig inner
Kd (NRP1 [1]): 1.28 nM | EC50 (NRP1 [2]): 0.5 nM

B5: DVD045 HGF arm (antibody, V domains shown)
VH: QVQLVESGGGLVKPGGSLRLSCAASGFTFSDYYMSWIRQAPGKGLEWVSYISSSGSTIYYADSVKGRFTISRDNAKNSLYLQMNSLRAEDTAVYYCARDEYNSGWYVLFDYWGQGTLVTVSS
VL: DIQMTQSPSSVSASVGDRVTITCRASQGISSWLAWYQQKPGKAPNLLIYEASSLQSGVPSRFGGSGSGTDFTLTISSLQPEDFATYYCQQANGFPWTFGQGTKVEIKR
modifications: DVD-Ig inner
EC50 (HGF [3]): > 100 nM | Kd (HGF [4]): 0.901 nM | IC50 (HGF [5]): > 100 nM | EC50 (HGF [6]): 185 nM
